Measured values published in patent publication US20050065324A1.

Key:
[1] = target: human platelet thrombospondin (thrombospondin-1) (human) (UniProt P07996); assay: sandwich ELISA, Ab-4 capture, Ab-8 detection; analyte at 100.0 ng/mL
[2] = target: recombinant human TSP fragment of ~140 kDa engineered to lack the N-terminal heparin-binding domain (human); assay: as above
[3] = target: human platelet thrombospondin (thrombospondin-1) (human) (UniProt P07996); assay: sandwich ELISA, Ab-4 capture, Ab-8 detection; analyte at 12.50 ng/mL
[4] = target: recombinant human TSP fragment of ~140 kDa engineered to lack the N-terminal heparin-binding domain (human); assay: as above
[5] = target: human platelet thrombospondin (thrombospondin-1) (human) (UniProt P07996); assay: sandwich ELISA, Ab-4 capture, Ab-8 detection; analyte at 200.0 ng/mL
[6] = target: recombinant human TSP fragment of ~140 kDa engineered to lack the N-terminal heparin-binding domain (human); assay: as above
[7] = target: human platelet thrombospondin (thrombospondin-1) (human) (UniProt P07996); assay: sandwich ELISA, Ab-4 capture, Ab-8 detection; analyte at 25.00 ng/mL
[8] = target: recombinant human TSP fragment of ~140 kDa engineered to lack the N-terminal heparin-binding domain (human); assay: as above
[9] = target: human platelet thrombospondin (thrombospondin-1) (human) (UniProt P07996); assay: sandwich ELISA, Ab-4 capture, Ab-8 detection; analyte at 3.125 ng/mL
[10] = target: recombinant human TSP fragment of ~140 kDa engineered to lack the N-terminal heparin-binding domain (human); assay: as above
[11] = target: human platelet thrombospondin (thrombospondin-1) (human) (UniProt P07996); assay: sandwich ELISA, Ab-4 capture, Ab-8 detection; analyte at 50.00 ng/mL
[12] = target: recombinant human TSP fragment of ~140 kDa engineered to lack the N-terminal heparin-binding domain (human); assay: as above
[13] = target: human platelet thrombospondin (thrombospondin-1) (human) (UniProt P07996); assay: sandwich ELISA, Ab-4 capture, Ab-8 detection; analyte at 6.250 ng/mL
[14] = target: recombinant human TSP fragment of ~140 kDa engineered to lack the N-terminal heparin-binding domain (human); assay: as above

Sequence of UniProt P07996 (P07996 19-1170 T523A): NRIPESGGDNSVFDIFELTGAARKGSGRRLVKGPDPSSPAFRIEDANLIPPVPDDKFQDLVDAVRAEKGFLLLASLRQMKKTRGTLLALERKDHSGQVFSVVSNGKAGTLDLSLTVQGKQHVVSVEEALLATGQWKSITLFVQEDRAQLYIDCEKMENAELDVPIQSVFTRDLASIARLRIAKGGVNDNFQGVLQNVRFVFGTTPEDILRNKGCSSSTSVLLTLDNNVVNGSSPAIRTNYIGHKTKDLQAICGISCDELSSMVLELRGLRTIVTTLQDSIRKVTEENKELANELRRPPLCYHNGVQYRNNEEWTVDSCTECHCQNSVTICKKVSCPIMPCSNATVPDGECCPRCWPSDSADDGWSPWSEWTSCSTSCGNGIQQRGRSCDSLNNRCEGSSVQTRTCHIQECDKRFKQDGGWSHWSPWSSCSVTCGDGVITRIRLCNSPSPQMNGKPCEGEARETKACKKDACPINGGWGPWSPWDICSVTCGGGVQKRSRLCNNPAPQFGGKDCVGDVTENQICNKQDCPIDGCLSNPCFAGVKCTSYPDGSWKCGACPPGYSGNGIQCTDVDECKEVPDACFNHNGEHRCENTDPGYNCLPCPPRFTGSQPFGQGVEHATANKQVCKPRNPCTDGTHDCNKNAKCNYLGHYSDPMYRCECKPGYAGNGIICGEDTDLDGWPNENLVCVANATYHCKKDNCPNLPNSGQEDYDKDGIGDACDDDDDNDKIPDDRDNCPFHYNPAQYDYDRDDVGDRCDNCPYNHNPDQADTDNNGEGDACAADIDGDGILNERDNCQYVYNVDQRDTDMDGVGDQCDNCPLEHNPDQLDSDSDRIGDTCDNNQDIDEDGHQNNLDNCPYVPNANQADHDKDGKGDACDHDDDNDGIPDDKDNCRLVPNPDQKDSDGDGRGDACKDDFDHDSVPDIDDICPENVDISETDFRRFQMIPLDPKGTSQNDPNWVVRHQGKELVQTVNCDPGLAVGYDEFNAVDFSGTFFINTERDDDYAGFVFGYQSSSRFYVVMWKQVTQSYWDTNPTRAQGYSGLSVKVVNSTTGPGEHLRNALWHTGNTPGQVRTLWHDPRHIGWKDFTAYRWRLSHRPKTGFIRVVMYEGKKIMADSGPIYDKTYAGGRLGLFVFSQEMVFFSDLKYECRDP

- ELISA OD-450 [1]: 2.09 OD-450
- ELISA OD-450 [2]: 2.2 OD-450
- ELISA OD-450 [3]: 0.713 OD-450
- ELISA OD-450 [4]: 0.662 OD-450
- ELISA OD-450 [5]: 2.5 OD-450
- ELISA OD-450 [6]: 2.56 OD-450
- ELISA OD-450 [7]: 1.08 OD-450
- ELISA OD-450 [8]: 1.17 OD-450
- ELISA OD-450 [9]: 0.345 OD-450
- ELISA OD-450 [10]: 0.279 OD-450
- ELISA OD-450 [11]: 1.57 OD-450
- ELISA OD-450 [12]: 1.8 OD-450
- ELISA OD-450 [13]: 0.514 OD-450
- ELISA OD-450 [14]: 0.4 OD-450
Substance: TSP Ab-4 (Clone A6.1) (antibody)
